Paper PMC3030345 (The Journal of Biological Chemistry, 2010)

Biological target: the molecule itself
Assay: atomic force microscopy

B1: A3G-H248A/H250A-Myc-His (enzyme, human, UniProt Q9HC16 1-384, looked up)
chain: MKPHFRNTVERMYRDTFSYNFYNRPILSRRNTVWLCYEVKTKGPSRPPLDAKIFRGQVYSELKYHPEMRFFHWFSKWRKLHRDQEYEVTWYISWSPCTKCTRDMATFLAEDPKVTLTIFVARLYYFWDPDYQEALRSLCQKRDGPRATMKIMNYDEFQHCWSKFVYSQRELFEPWNNLPKYYILLHIMLGEILRHSMDPPTFTFNFNNEPWVRGRHETYLCYEVERMHNDTWVLLNQRRGFLCNQAPAKAGFLEGRHAELCFLDVIPFWKLDLDQDYRVTCFTSWSPCFSCAQEMAKFISKNKHVSLCIFTARIYDDQGRCQEGLRTLAEAGAKISIMTYSEFKHCWDTFVDHQGCPFQPWDGLDEHSQDLSGRLRAILQNQEN
stoichiometry N: 2
